From article PMC11208452 come the findings set out here.

The target in this data set is T1, BMAL2 (recombinant human, Novus H00056938-Q01) (Homo sapiens) (UniProt Q8WYA1).
T1 sequence (Q8WYA1 whole entry, looked up): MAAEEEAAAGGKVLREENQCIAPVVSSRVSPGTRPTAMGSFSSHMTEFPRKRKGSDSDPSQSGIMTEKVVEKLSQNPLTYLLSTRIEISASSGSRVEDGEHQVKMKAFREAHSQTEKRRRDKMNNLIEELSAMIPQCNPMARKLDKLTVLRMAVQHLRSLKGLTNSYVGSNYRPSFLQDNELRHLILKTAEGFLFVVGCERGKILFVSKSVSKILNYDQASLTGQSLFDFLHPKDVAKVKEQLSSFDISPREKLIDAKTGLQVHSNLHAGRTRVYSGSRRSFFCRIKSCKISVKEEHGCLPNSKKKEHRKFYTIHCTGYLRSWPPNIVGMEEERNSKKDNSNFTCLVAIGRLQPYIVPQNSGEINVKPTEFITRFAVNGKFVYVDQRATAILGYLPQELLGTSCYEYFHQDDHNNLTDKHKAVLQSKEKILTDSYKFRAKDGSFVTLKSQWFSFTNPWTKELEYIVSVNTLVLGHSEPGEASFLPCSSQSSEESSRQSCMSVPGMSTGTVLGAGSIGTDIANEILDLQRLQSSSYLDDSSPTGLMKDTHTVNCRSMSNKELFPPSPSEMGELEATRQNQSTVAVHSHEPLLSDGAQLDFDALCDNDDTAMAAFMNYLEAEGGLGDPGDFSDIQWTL
The data set is described as follows: SPR. Particulars: BMAL2 immobilized; oligo analyte 50, 100, 200 nM; global 1:1 fit; OpenSPR (text also says BIAcore), 20 C, 30 ul/min; running buffer, salt and pH not stated (immobilization in 10 mM sodium acetate pH 5.5). (Surface plasmon resonance follows binding to a sensor surface in real time, without labels.)

One may read the Kd as a measure of binding affinity in units of concentration. “GGCGCAACGCTGAGCAGCT (double strand) [human PD-L1 promoter predicted BMAL2 binding site oligo]”: the Kd stood at 209 nM.
